In experiment [1] the target is T1, biotinylated human CD28 (human, UniProt P10747 19-152, limits assumed, biotinylated (site not stated)).
T1 construct: also called Human CD28-Biotin
Nature of the experiment: ELISA, biotinylated antigen captured on neutravidin plates, HRP secondary antibody. Here is the method:
(§1) The polypeptide complex molecules were evaluated for their ability to bind human PDL1 or CD28 in a standard enzyme linked immunosorbent assay (ELISA) format. […] Polypeptide complex molecules diluted in buffer were then added to the antigen coated plates. Bound polypeptide complex was detected using a standard horse radish peroxidase conjugate secondary antibody.
(In general: In an ELISA, binding on a coated surface is turned into a signal by an enzyme label.)

In experiment [2] the target is T2, biotinylated human PD-L1 (human, UniProt Q9NZQ7 19-238, limits assumed, biotinylated (site not stated)).
T2 construct: also called Human PDL1-biotin
The experiment is described as above. As to the method:
as §1

B1: Ab-6 (bispecific antibody)
light: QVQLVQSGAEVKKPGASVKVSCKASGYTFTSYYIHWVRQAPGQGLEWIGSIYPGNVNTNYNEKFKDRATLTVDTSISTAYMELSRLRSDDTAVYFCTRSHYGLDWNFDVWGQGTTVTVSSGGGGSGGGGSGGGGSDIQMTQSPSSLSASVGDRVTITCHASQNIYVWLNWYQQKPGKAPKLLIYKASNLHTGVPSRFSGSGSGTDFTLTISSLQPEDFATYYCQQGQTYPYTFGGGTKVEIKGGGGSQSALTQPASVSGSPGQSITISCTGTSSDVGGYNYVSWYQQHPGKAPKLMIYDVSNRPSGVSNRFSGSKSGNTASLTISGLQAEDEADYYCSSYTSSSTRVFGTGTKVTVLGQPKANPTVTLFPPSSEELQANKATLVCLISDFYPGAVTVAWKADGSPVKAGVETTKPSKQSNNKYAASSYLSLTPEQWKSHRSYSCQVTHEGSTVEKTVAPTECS
heavy: EVQLLESGGGLVQPGGSLRLSCAASGFTFSSYIMMWVRQAPGKGLEWVSSIYPSGGITFYADTVKGRFTISRDNSKNTLYLQMNSLRAEDTAVYYCARIKLGTVTTVDYWGQGTLVTVSSASTKGPSVFPLAPSSKSTSGGTAALGCLVKDYFPEPVTVSWNSGALTSGVHTFPAVLQSSGLYSLSSVVTVPSSSLGTQTYICNVNHKPSNTKVDKKVEPKSC
notes: Anti-CD28 scFv fused to the light chain of anti-PD-L1 Fab 3; no Fc
For the molecule B1, the EC50 (as a rule, the midpoint of the concentration-response curve) in experiment [1] stood at 1.89 nM; in experiment [2], 0.28 nM.

B2: Ab-5 (bispecific antibody)
light: QSALTQPASVSGSPGQSITISCTGTSSDVGGYNYVSWYQQHPGKAPKLMIYDVSNRPSGVSNRFSGSKSGNTASLTISGLQAEDEADYYCSSYTSSSTRVFGTGTKVTVLGQPKANPTVTLFPPSSEELQANKATLVCLISDFYPGAVTVAWKADGSPVKAGVETTKPSKQSNNKYAASSYLSLTPEQWKSHRSYSCQVTHEGSTVEKTVAPTECS
heavy: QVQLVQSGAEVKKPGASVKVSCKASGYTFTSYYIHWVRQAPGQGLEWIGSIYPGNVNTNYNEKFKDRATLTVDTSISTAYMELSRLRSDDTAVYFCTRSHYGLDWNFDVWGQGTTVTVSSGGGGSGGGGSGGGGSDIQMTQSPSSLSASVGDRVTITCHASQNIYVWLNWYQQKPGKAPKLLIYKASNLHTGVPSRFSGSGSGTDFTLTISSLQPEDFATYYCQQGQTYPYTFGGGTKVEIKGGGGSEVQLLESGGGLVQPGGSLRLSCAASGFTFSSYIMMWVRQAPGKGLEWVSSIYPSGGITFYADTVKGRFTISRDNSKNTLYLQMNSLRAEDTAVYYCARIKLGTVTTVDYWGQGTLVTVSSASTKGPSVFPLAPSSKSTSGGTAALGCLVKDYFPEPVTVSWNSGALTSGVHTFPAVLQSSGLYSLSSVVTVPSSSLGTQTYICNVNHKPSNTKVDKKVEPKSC
notes: Anti-CD28 scFv fused to the heavy chain of anti-PD-L1 Fab 3; no Fc
For the molecule B2, the values for the EC50 in experiment [1] and in experiment [2] were 0.91 nM and 0.11 nM, respectively.
